Laboratory results published in paper PMC8546227.

Biological target: Hoc^-Soc^- T4 phage capsid (bacteriophage T4) (UniProt P19896)
Assay: co-sedimentation

Sequence of UniProt P19896 (P19896 whole entry, looked up): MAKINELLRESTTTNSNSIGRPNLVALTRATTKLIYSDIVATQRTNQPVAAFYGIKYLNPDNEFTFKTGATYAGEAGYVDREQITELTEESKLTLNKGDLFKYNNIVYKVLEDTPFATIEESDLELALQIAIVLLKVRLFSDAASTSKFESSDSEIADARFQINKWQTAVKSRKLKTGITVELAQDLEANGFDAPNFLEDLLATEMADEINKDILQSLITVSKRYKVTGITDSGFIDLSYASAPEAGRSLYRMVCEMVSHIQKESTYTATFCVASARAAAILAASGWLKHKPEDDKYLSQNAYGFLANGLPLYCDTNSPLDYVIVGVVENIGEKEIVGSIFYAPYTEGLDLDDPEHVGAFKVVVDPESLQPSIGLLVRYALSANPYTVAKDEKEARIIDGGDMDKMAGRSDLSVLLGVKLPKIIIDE

## Soc-3M2e fusion protein (RB69 Soc with three tandem copies of M2e from human, swine and avian influe
  Kd: 305 nM
